Source: doi:10.1101/2025.03.30.646247 (bioRxiv, 2025)

Target: T1, 6xHis-CIPK6 (Arabidopsis thaliana, UniProt O65554 1-441)
T1 sequence: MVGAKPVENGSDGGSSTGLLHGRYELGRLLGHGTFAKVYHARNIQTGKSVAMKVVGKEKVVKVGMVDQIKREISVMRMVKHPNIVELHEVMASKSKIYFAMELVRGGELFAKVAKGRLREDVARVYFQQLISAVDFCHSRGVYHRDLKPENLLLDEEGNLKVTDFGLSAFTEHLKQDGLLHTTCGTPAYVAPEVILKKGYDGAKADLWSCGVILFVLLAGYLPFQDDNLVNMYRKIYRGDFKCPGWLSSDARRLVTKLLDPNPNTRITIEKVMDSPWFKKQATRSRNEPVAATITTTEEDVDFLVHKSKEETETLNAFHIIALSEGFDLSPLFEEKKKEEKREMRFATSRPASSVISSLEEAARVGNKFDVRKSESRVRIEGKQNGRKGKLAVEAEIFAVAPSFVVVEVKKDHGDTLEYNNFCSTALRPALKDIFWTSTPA
Test: pull-down

B1: GST-RbohD-N (domain or fragment)
chain: MKMRRGNSSNDHELGILRGANSDTNSDTESIASDRGAFSGPLGRPKRASKKNARFADDLPKRSNSVAGGRGDDDEYVEITLDIRDDSVAVHSVQQAAGGGGHLEDPELALLTKKTLESSLNNTTSLSFFRSTSSRIKNASRELRRVFSRRPSPAVRRFDRTSSAAIHALKGLKFIATKTAAWPAVDQRFDKLSADSNGLLLSAKFWECLGMNKESKDFADQLFRALARRNNVSGDAITKEQLRIFWEQISDESFDAKLQVFFDMVDKDEDGRVTEEEVAEIISLSASANKLSNIQKQAKEYAALIMEELDPDNAGFIMIENLEMLLLQAPNQSVRMGDSRILSQMLSQKLRPAKESNPLVRWSEKIKYFILDNWQR
  binding result: binds
